# B1: yeast Transcription Factor II A (complex)
# chain 1: MSNAEASRVYEIIVESVVNEVREDFENAGIDEQTLQDLKNIWQKKLTETKVTTFSWDNQFNEGNINGVQNDLNFNLATPGVNSSEFNIKEENTGNEGLILPNINSNNNIPHSGETNINTNTVEATNNSGATLNTNTSGNTNADVTSQPKIEVKPEIELTINNANITTVENIDDESEKKDDEEKEEDVEKTRKEKEQIEQVKLQAKKEKRSALLDTDEVGSELDDSDDDYLISEGEEDGPDENLMLCLYDKVTRTKARWKCSLKDGVVTINRNDYTFQKAQVEAEWV
# chain 2: MAVPGYYELYRRSTIGNSLVDALDTLISDGRIEASLAMRVLETFDKVVAETLKDNTQSKLTVKGNLDTYGFCDDVWTFIVKNCQVTVEDSHRDASQNGSGDSQSVISVDKLRIVACNSKKSE
# modifications: Construct and limits are not given; the full-length TOA1/TOA2 heterodimer is assumed. Species is inferred from the label yTFIIA and the S. cerevisiae TBP used with it.
# Experiments:
# Details in all cases: both partners purified
# [1] = molecular target: T1, full-length Tata Binding Protein from Saccharomyces cerevisiae (Saccharomyces cerevisiae, UniProt P13393 1-240); test: stopped-flow fluorescence anisotropy kinetics (dual-channel, rF(t)); 17 °C; preformed yTBP (220 nM)-AdMLP31ds*Flint (20 nM) in syringe 1, 850 nM TFIIA in syringe 2 (concentrations after mixing); 25 mM Tris, 100 mM KCl, 5 mM MgCl2, 1 mM CaCl2, 2 mM DTT; biphasic fit, kon from the fast eigenvalue
# T1 construct: also called yTBP; TBP; source: Escherichia coli, purified
# T1 sequence (looked up): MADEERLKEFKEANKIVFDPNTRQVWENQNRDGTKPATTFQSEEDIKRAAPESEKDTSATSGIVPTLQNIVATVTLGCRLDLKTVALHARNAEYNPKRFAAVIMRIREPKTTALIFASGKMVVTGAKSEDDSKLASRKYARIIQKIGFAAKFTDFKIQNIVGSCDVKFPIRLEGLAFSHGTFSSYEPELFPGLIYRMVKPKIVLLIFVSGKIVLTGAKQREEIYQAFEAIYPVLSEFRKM
# [2] = molecular target: T1, full-length Tata Binding Protein from …; test: stopped-flow fluorescence anisotropy kinetics (dual-channel, rF(t)); derived over the range 15 °C to 25 °C from the kon values: van't Hoff plot, and KD estimated with a dissociation rate constant cited from other work
# [3] = molecular target: T1, full-length Tata Binding Protein from …; test: stopped-flow fluorescence anisotropy kinetics (dual-channel, rF(t)); 15 °C; preformed yTBP (220 nM)-AdMLP31ds*Flint (20 nM) in syringe 1, 850 nM TFIIA in syringe 2 (concentrations after mixing); 25 mM Tris, 100 mM KCl, 5 mM MgCl2, 1 mM CaCl2, 2 mM DTT; biphasic fit, kon from the fast eigenvalue
# [4] = molecular target: T1, full-length Tata Binding Protein from …; test: stopped-flow fluorescence anisotropy kinetics (dual-channel, rF(t)); 25 °C; preformed yTBP (220 nM)-AdMLP31ds*Flint (20 nM) in syringe 1, 850 nM TFIIA in syringe 2 (concentrations after mixing); 25 mM Tris, 100 mM KCl, 5 mM MgCl2, 1 mM CaCl2, 2 mM DTT; biphasic fit, kon from the fast eigenvalue
binder,measurement,setting,value
B1,kon,[1],1.84e+06 M⁻¹ s⁻¹
same,Kd,[2],2.1 to 6.6 nM
same,dH,[2],19.6 ± 1.6 kcal/mol
same,kon,[3],1.45e+06 M⁻¹ s⁻¹
same,kon,[4],4.68e+06 M⁻¹ s⁻¹

# — article PMC7699296, “Dual-Channel Stopped-Flow Apparatus for Simultaneous Fluorescence, Anisotropy, and FRET Kinetic Data Acquisition for Binary and Ternary Biological Complexes” (Biosensors, 2020)
